The target of this test is integrin linked kinase (ILK), full-length human (human, UniProt Q13418 1-452). The test is described as follows: SEC; purified IPPmin complex on a calibrated gel-filtration column (Superdex 200 10/300 GL); 20 mM Tris pH 7.5, 150 mM NaCl, 1 mM DTT. Particulars: both partners purified.

Data on 1 molecule can be found in paper PMC3561323 (PLoS ONE, 2013).

integrin linked kinase (ILK), full-length human, sequence (Q13418 whole entry): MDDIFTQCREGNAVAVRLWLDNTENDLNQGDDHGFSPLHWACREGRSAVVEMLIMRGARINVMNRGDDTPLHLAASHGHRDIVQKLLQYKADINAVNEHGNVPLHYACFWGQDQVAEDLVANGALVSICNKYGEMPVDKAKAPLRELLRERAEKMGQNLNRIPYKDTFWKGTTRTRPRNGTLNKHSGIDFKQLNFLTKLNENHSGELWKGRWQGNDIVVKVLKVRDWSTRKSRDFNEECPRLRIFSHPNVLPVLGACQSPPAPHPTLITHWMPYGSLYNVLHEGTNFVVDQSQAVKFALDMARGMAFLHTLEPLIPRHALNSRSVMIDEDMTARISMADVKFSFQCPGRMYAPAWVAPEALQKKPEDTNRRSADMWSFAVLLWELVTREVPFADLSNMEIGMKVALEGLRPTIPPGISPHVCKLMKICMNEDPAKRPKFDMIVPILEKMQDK

B1: LIM1 domain of PINCH1 (domain or fragment, human, UniProt P48059 6-68, looked up)
chain: ASATCERCKGGFAPAEKIVNSNGELYHEQCFVCAQCFQQFPEGLFYEFEGRKYCEHDFQMLFA
On to B1, for which the binding result is listed as “binds”.
